# In article PMC9600179:
# Target: T1, AlgR (Pseudomonas aeruginosa PAO1) (UniProt P26275)
# T1 sequence: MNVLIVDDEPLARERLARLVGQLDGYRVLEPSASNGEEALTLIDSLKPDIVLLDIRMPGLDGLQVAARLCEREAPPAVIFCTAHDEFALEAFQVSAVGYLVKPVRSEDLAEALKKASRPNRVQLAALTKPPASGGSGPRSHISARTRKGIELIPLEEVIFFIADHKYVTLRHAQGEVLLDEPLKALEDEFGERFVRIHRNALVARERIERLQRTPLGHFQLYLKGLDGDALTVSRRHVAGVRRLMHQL
# Assay: EMSA
# Settings: EMSA: 10 mM Tris-HCl pH 7.4, 50 mM KCl, 5 mM MgCl2, 10% glycerol, 30 min, temperature not stated; 1 ug DIDC (poly dI-dC) with FITC probes in some assays …
row,Sequence,binding
1,CTGGCGATGGAAGGCACTCCAATCGAGGTCCGCAGGGCCGACCAGCGCGTCCAGCGAGAAATCGTCGAGCAAAGGGCGTCCGGCGGCCGCACGCAGGGTCAACGGCGCCAAAGGACCGCTCAGCGACGGTGCATCGGCTTCACGCACCACCAGGCTGGCCTGGCAGTCGGCAGCGATATCGGCCAGGGCCTGCTCGCGGGACTT (double strand) [pqsA CDS fragment],binds
2,CGGGTCTTCGTAGGCGTAGCGGGTGCTGCCGGCCGGGCCGCGCACCGTCGTCGCATTGCCCCGTTCGTCGCGCTCGAAGGTCCAGCGGCGCTGCATCGCGTCCTCCAGCTCGACCAGCAGCCCGGTCTCTTCGTCGACGCGCTTGCGATAGCGCGCCTTGCCCGGCGACTCCTCCTCGAGC (double strand) [tse5 CDS fragment],binds
3,GTACCTCGTCCGGCTCGGCGTCGGCGGTATAGCCGAGGATCAGGATCGGCGCGCGTCGCTCGCACCGTTCCTGGATGCGTATCCTGCGTGCCAGCTGATAGCCGTTCAGGCGCGGCATGTTGCAGTCGCTGATCAGCACCTCGAAGCGCTCGTCGGCCCAGAGCTCCAGCGCCA (double strand) [rocsS2 CDS fragment],binds
